Experimental data: article doi:10.1101/2022.02.02.478874 (bioRxiv, 2022)
Values joined by “and” are separate entries in the source; they are usually repeats but may differ in a detail not shown here. Equal values may be shown once. Read-outs that look alike come from different tables or passages of the source.

Columns and labels:
[1] = target: T1, mCherry-tagged full-length Spindly (^mChSpindly^FL) (human), Q96EA4; test: mass photometry; details: remark: other sources report otherwise
T1 chain: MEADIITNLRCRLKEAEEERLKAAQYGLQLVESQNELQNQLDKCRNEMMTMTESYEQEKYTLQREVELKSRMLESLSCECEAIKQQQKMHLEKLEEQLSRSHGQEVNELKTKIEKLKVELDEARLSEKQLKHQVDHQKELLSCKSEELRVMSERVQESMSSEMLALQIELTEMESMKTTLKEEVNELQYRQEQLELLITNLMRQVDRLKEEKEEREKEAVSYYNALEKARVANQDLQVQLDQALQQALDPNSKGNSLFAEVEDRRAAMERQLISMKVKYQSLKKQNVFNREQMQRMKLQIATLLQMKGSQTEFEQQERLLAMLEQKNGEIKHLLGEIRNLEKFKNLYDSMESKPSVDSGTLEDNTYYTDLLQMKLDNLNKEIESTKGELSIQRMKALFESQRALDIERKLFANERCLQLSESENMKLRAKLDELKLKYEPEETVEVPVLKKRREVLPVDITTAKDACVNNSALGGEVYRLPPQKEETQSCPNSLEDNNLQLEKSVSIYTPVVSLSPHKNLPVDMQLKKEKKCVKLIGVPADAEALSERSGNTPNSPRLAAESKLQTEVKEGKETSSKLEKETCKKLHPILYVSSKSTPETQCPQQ

[2] = target: the molecule itself
[3] = target: the molecule itself; test: crystal structure
[4] = target: T2, Spindly^250-605 (human, UniProt Q96EA4 250-605); test: SEC
T2 sequence: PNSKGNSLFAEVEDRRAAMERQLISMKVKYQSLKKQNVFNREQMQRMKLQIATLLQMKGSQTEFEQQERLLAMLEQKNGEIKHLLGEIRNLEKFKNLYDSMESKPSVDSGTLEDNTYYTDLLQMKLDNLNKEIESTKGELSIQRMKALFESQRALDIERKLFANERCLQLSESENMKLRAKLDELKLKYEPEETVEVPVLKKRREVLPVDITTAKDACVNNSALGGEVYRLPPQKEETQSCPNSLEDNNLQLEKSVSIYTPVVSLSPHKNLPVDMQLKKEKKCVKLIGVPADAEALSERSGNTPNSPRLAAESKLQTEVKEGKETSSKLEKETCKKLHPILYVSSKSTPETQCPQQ

[5] = target: the molecule itself; test: mass photometry

B1: mCherry-tagged full-length Spindly (^mChSpindly^FL), Q96EA4 1-605 (natural protein)
chain: MEADIITNLRCRLKEAEEERLKAAQYGLQLVESQNELQNQLDKCRNEMMTMTESYEQEKYTLQREVELKSRMLESLSCECEAIKQQQKMHLEKLEEQLSRSHGQEVNELKTKIEKLKVELDEARLSEKQLKHQVDHQKELLSCKSEELRVMSERVQESMSSEMLALQIELTEMESMKTTLKEEVNELQYRQEQLELLITNLMRQVDRLKEEKEEREKEAVSYYNALEKARVANQDLQVQLDQALQQALDPNSKGNSLFAEVEDRRAAMERQLISMKVKYQSLKKQNVFNREQMQRMKLQIATLLQMKGSQTEFEQQERLLAMLEQKNGEIKHLLGEIRNLEKFKNLYDSMESKPSVDSGTLEDNTYYTDLLQMKLDNLNKEIESTKGELSIQRMKALFESQRALDIERKLFANERCLQLSESENMKLRAKLDELKLKYEPEETVEVPVLKKRREVLPVDITTAKDACVNNSALGGEVYRLPPQKEETQSCPNSLEDNNLQLEKSVSIYTPVVSLSPHKNLPVDMQLKKEKKCVKLIGVPADAEALSERSGNTPNSPRLAAESKLQTEVKEGKETSSKLEKETCKKLHPILYVSSKSTPETQCPQQ
Q: B1 was tested. Which stoichiometry N [1] did it give?
A: The stoichiometry N was 2.

B2: ^mChSpindly^Δ276-306 (natural protein)
chain: MEADIITNLRCRLKEAEEERLKAAQYGLQLVESQNELQNQLDKCRNEMMTMTESYEQEKYTLQREVELKSRMLESLSCECEAIKQQQKMHLEKLEEQLSRSHGQEVNELKTKIEKLKVELDEARLSEKQLKHQVDHQKELLSCKSEELRVMSERVQESMSSEMLALQIELTEMESMKTTLKEEVNELQYRQEQLELLITNLMRQVDRLKEEKEEREKEAVSYYNALEKARVANQDLQVQLDQALQQALDPNSKGNSLFAEVEDRRAAMERQLISMKGSQTEFEQQERLLAMLEQKNGEIKHLLGEIRNLEKFKNLYDSMESKPSVDSGTLEDNTYYTDLLQMKLDNLNKEIESTKGELSIQRMKALFESQRALDIERKLFANERCLQLSESENMKLRAKLDELKLKYEPEETVEVPVLKKRREVLPVDITTAKDACVNNSALGGEVYRLPPQKEETQSCPNSLEDNNLQLEKSVSIYTPVVSLSPHKNLPVDMQLKKEKKCVKLIGVPADAEALSERSGNTPNSPRLAAESKLQTEVKEGKETSSKLEKETCKKLHPILYVSSKSTPETQCPQQ
Q: B2 was tested. Which “stoichiometry N” value [2] did it give?
A: The value was 2 and 4.

B3: Spindly^1-100 (domain or fragment)
chain: MEADIITNLRCRLKEAEEERLKAAQYGLQLVESQNELQNQLDKCRNEMMTMTESYEQEKYTLQREVELKSRMLESLSCECEAIKQQQKMHLEKLEEQLSR
Q: With B3 as the binder, how does the “stoichiometry N” value [3] read?
A: The value was 2.

B4: Spindly^1-250 (domain or fragment)
chain: MEADIITNLRCRLKEAEEERLKAAQYGLQLVESQNELQNQLDKCRNEMMTMTESYEQEKYTLQREVELKSRMLESLSCECEAIKQQQKMHLEKLEEQLSRSHGQEVNELKTKIEKLKVELDEARLSEKQLKHQVDHQKELLSCKSEELRVMSERVQESMSSEMLALQIELTEMESMKTTLKEEVNELQYRQEQLELLITNLMRQVDRLKEEKEEREKEAVSYYNALEKARVANQDLQVQLDQALQQALDP
Q: Does B4 bind [4]?
A: Result: binds

B5: ^mChSpindly^76-605 (domain or fragment)
chain: LSCECEAIKQQQKMHLEKLEEQLSRSHGQEVNELKTKIEKLKVELDEARLSEKQLKHQVDHQKELLSCKSEELRVMSERVQESMSSEMLALQIELTEMESMKTTLKEEVNELQYRQEQLELLITNLMRQVDRLKEEKEEREKEAVSYYNALEKARVANQDLQVQLDQALQQALDPNSKGNSLFAEVEDRRAAMERQLISMKVKYQSLKKQNVFNREQMQRMKLQIATLLQMKGSQTEFEQQERLLAMLEQKNGEIKHLLGEIRNLEKFKNLYDSMESKPSVDSGTLEDNTYYTDLLQMKLDNLNKEIESTKGELSIQRMKALFESQRALDIERKLFANERCLQLSESENMKLRAKLDELKLKYEPEETVEVPVLKKRREVLPVDITTAKDACVNNSALGGEVYRLPPQKEETQSCPNSLEDNNLQLEKSVSIYTPVVSLSPHKNLPVDMQLKKEKKCVKLIGVPADAEALSERSGNTPNSPRLAAESKLQTEVKEGKETSSKLEKETCKKLHPILYVSSKSTPETQCPQQ
Q: B5 was tested. Which “stoichiometry N” value [5] did it give?
A: The value was 2.

B6: ^mChSpindly^ΔRV (natural protein)
chain: MEADIITNLRCRLKEAEEERLKAAQYGLQLVESQNELQNQLDKCRNEMMTMTESYEQEKYTLQREVELKSRMLESLSCECEAIKQQQKMHLEKLEEQLSRSHGQEVNELKTKIEKLKVELDEARLSEKQLKHQVDHQKELLSCKSEELRVMSEQESMSSEMLALQIELTEMESMKTTLKEEVNELQYRQEQLELLITNLMRQVDRLKEEKEEREKEAVSYYNALEKARVANQDLQVQLDQALQQALDPNSKGNSLFAEVEDRRAAMERQLISMKVKYQSLKKQNVFNREQMQRMKLQIATLLQMKGSQTEFEQQERLLAMLEQKNGEIKHLLGEIRNLEKFKNLYDSMESKPSVDSGTLEDNTYYTDLLQMKLDNLNKEIESTKGELSIQRMKALFESQRALDIERKLFANERCLQLSESENMKLRAKLDELKLKYEPEETVEVPVLKKRREVLPVDITTAKDACVNNSALGGEVYRLPPQKEETQSCPNSLEDNNLQLEKSVSIYTPVVSLSPHKNLPVDMQLKKEKKCVKLIGVPADAEALSERSGNTPNSPRLAAESKLQTEVKEGKETSSKLEKETCKKLHPILYVSSKSTPETQCPQQ
Q: Which “stoichiometry N” value [5] does the source give for B6 here?
A: Its value is 2.

B7: Spindly^1-275 (domain or fragment)
chain: MEADIITNLRCRLKEAEEERLKAAQYGLQLVESQNELQNQLDKCRNEMMTMTESYEQEKYTLQREVELKSRMLESLSCECEAIKQQQKMHLEKLEEQLSRSHGQEVNELKTKIEKLKVELDEARLSEKQLKHQVDHQKELLSCKSEELRVMSERVQESMSSEMLALQIELTEMESMKTTLKEEVNELQYRQEQLELLITNLMRQVDRLKEEKEEREKEAVSYYNALEKARVANQDLQVQLDQALQQALDPNSKGNSLFAEVEDRRAAMERQLISM
Q: B7 was tested. Which “stoichiometry N” value [2] did it give?
A: Its value is 2 and 4.
